Patent US5532348 (United States of America, dated 1996)

Columns and labels:
[1] = biological target: T1, HPV11 E6, wheat germ extract translated (human papillomavirus type 11, UniProt P04019); test: GST-E6-AP fusion on glutathione-Sepharose, 35S-labelled E6
T1 sequence: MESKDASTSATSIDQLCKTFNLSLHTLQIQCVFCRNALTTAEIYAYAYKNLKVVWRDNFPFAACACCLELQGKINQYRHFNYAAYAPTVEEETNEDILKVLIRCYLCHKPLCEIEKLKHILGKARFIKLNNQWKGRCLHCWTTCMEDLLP

[2] = biological target: T2, GST fusion to HPV 11 E6 (human papillomavirus type 11, UniProt P04019); test: GST pull-down of 35S-labelled translate, no p53
T2 sequence: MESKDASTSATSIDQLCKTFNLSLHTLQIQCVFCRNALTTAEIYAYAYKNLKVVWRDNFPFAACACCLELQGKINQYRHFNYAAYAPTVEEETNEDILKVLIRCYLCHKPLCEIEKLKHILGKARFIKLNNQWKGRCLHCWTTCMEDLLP

[3] = biological target: GST (with no fusion) (Schistosoma japonicum (Blood fluke), UniProt P08515 = GST); test: GST pull-down of 35S-labelled translate, no p53
[4] = biological target: GST-p53 (glutathione S-transferase fusion of wild-type p53) (Homo sapiens (Human), UniProt P04637); test: GST-p53 pull-down of 35S-labelled E6-AP variant in the presence of HPV16 E6

B1: GST-E6-AP fusion protein with amino acids 371 to 440 of SEQ ID NO:1 (SEQ ID NO:2) (other)
chain: ANVVGGEVDTNHNEEDDEEPIPESSELTLQELLGEERRNKKGLRVDPLETELGVKTLDCRKPLIPFEEFI
- binding result [1]: no binding

B2: 95 kd in vitro translated form of E6-AP (amino acids 37 to 865 of SEQ ID NO:1) (other)
chain: EACTNEFCASCPTFLRMDNKAAAIKALELYKINAKLCDPHPSKKGASSAYLENSKGAPNNSCSEIKMNKKGARIDFKDVTYLTEEKVYEILELCREREDYSPLIRVIGRVFSSAEALVQSFRKVKQHTKEELKSLQAKDEDKDEDEKEKAACSAAAMEEDSEEASSSRIGDSSQGDNNLQKLGPDDVSVDIDAIRRVYTRLLSNEKIETAFLNALVYLSPNVECDLTYHNVYSRDPNYLNLFIIGMENRNLHSPEYLEMALPLFCKAMSKLPLAAQGKLIRLWSKYNADQIRRMMETFQQLITYKVISNEFNSRNLVNDDDAIVAASKCLKMVYYANVVGGEVDTNHNEEDDEEPIPESSELTLQELLGEERRNKKGLRVDPLETELGVKTLDCRKPLIPFEEFINEPLNEVLEMDKDYTFFKVETENKFSFMTCPFILNAVTKNLGLYYDNRIRMYSERRITVLTSLVQGQQLNPYLRLKVRRKHIIDDALVRLEMIAMENPADLKKQLYVEFEGEQGVDEGGVSKEFFQLVVEEIFNPDIGMFTYDESTKLFWFNPSSFETEGQFTLIGIVLGLAIYNNCILDVHGPMVVYRKLMGKKGTFRDLGDSHPVLYQSLKDLLEYVGNVEDDMMITFQISQTNLFQNPMMYDLKENGDKIPITNENRKEFVNLYSDYILNKSVEKQFKAFRRGRHMVTNESPLKYLFRPEEIELLICGSRNLDFQALEETTEYDGGYTRDSVLIREFWEIVHSFTDEQKRLFLQFTTGRDRAPVGGLGKLKMIIAKNGPDTERLPTSHTCFNVLLLPEYSSKEKLKERLLKAITYAKGFGM
- binding result [2]: no binding
- binding result [3]: no binding

B3: GST-75 kDa E6-AP fusion protein (amino acids 212-865 of SEQ ID NO:1) (other)
chain: DNNLQKLGPDDVSVDIDAIRRVYTRLLSNEKIETAFLNALVYLSPNVECDLTYHNVYSRDPNYLNLFIIGMENRNLHSPEYLEMALPLFCKAMSKLPLAAQGKLIRLWSKYNADQIRRMMETFQQLITYKVISNEFNSRNLVNDDDAIVAASKCLKMVYYANVVGGEVDTNHNEEDDEEPIPESSELTLQELLGEERRNKKGLRVDPLETELGVKTLDCRKPLIPFEEFINEPLNEVLEMDKDYTFFKVETENKFSFMTCPFILNAVTKNLGLYYDNRIRMYSERRITVLTSLVQGQQLNPYLRLKVRRKHIIDDALVRLEMIAMENPADLKKQLYVEFEGEQGVDEGGVSKEFFQLVVEEIFNPDIGMFTYDESTKLFWFNPSSFETEGQFTLIGIVLGLAIYNNCILDVHGPMVVYRKLMGKKGTFRDLGDSHPVLYQSLKDLLEYVGNVEDDMMITFQISQTNLFQNPMMYDLKENGDKIPITNENRKEFVNLYSDYILNKSVEKQFKAFRRGRHMVTNESPLKYLFRPEEIELLICGSRNLDFQALEETTEYDGGYTRDSVLIREFWEIVHSFTDEQKRLFLQFTTGRDRAPVGGLGKLKMIIAKNGPDTERLPTSHTCFNVLLLPEYSSKEKLKERLLKAITYAKGFGM
- binding result [1]: no binding

B4: E6-AP N-terminally truncated form beginning at amino acid 322 (other)
chain: YNADQIRRMMETFQQLITYKVISNEFNSRNLVNDDDAIVAASKCLKMVYYANVVGGEVDTNHNEEDDEEPIPESSELTLQELLGEERRNKKGLRVDPLETELGVKTLDCRKPLIPFEEFINEPLNEVLEMDKDYTFFKVETENKFSFMTCPFILNAVTKNLGLYYDNRIRMYSERRITVLTSLVQGQQLNPYLRLKVRRKHIIDDALVRLEMIAMENPADLKKQLYVEFEGEQGVDEGGVSKEFFQLVVEEIFNPDIGMFTYDESTKLFWFNPSSFETEGQFTLIGIVLGLAIYNNCILDVHGPMVVYRKLMGKKGTFRDLGDSHPVLYQSLKDLLEYVGNVEDDMMITFQISQTNLFQNPMMYDLKENGDKIPITNENRKEFVNLYSDYILNKSVEKQFKAFRRGRHMVTNESPLKYLFRPEEIELLICGSRNLDFQALEETTEYDGGYTRDSVLIREFWEIVHSFTDEQKRLFLQFTTGRDRAPVGGLGKLKMIIAKNGPDTERLPTSHTCFNVLLLPEYSSKEKLKERLLKAITYAKGFGM
- binding result [4]: no binding
